Common to all, as to experiment: fluorescence polarisation; 37 °C, after the 25 °C reading ramped over 7 min to 37 °C and 2 min incubation; unlabeled Rb^P against 1.5 nM TMR-E2F1^TD or 7.5 nM TMR-E7^LxCxE; 25 mM Tris pH 8.0, 200 mM NaCl, 1 mM DTT, 0.1% Tween-20; apparent Kd
Holding throughout (details): both partners purified

One test concerns the target T1, Rb^P M704V (human, UniProt P06400 380-788, M704V).
T1 construct: also called variant 66
T1 sequence (looked up): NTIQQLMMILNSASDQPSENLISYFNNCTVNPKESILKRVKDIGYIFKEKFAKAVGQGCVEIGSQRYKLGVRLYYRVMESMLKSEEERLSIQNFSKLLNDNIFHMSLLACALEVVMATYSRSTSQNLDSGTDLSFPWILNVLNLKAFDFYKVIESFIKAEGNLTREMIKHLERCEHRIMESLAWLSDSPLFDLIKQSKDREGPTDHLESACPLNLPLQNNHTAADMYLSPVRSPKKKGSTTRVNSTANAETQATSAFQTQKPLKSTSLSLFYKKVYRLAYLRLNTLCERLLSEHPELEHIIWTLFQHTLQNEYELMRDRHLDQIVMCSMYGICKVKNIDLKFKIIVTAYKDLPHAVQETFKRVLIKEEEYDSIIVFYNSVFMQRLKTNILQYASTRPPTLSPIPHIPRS

For another test, the target named is T2, Rb^P H555Y (human, UniProt P06400 380-788, H555Y).
T2 construct: also called variant 29
T2 sequence (looked up): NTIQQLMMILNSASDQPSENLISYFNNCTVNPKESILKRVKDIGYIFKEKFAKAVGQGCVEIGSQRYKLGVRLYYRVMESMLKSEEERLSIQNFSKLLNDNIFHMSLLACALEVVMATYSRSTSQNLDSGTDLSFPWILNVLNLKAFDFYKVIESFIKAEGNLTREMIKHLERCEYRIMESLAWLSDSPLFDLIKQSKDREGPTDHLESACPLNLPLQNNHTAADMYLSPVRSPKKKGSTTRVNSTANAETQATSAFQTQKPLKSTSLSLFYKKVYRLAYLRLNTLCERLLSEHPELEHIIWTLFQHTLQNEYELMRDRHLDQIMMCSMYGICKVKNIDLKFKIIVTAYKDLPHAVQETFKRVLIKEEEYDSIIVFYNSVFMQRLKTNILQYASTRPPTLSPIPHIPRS

The target of another test is T3, Rb^P E554K (human, UniProt P06400 380-788, E554K).
T3 construct: also called variant 28
T3 sequence (looked up): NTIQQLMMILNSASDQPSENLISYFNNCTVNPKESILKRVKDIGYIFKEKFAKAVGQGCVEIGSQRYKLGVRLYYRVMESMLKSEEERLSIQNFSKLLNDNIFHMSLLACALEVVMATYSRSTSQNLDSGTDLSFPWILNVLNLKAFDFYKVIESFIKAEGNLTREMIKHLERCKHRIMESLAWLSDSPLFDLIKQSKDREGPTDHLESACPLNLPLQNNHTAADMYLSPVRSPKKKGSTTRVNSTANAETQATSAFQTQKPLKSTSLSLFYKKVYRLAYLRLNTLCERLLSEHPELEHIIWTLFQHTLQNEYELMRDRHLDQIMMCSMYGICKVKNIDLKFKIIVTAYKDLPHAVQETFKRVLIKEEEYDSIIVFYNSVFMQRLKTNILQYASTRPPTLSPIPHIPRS

The target of a further test is T4, Rb^P I703V (human, UniProt P06400 380-788, I703V).
T4 construct: also called variant 65
T4 sequence (looked up): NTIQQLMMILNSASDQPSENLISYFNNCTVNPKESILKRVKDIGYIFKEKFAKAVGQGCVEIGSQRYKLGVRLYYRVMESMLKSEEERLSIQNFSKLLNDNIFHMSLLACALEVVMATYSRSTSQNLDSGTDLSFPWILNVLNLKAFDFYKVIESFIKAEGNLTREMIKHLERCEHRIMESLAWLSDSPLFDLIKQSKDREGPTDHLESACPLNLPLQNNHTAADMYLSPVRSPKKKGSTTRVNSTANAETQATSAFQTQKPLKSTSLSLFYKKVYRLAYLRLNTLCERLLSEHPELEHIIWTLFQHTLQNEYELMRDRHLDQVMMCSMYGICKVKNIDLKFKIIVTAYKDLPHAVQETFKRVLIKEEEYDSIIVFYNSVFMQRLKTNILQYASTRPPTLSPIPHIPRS

Another test addresses T5, Rb^P H673Y (human, UniProt P06400 380-788, H673Y).
T5 construct: also called variant 55
T5 sequence (looked up): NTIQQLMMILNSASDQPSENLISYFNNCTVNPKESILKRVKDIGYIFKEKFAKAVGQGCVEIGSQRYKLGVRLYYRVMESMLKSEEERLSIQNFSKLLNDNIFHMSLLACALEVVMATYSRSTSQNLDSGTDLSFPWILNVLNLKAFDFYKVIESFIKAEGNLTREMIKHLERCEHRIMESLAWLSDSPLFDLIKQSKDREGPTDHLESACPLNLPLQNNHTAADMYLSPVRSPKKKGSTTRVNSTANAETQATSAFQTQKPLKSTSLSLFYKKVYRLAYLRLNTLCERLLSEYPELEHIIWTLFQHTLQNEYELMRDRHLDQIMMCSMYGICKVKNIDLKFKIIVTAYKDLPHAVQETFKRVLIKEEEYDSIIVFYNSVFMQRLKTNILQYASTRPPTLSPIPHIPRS

No end group written: not given here. TMR = tetramethyl rhodamine dye

B1: TMR-E2F1^TD, peptide of the E2F1 transactivation domain (peptide)
peptide: {TMR}-GEGIRDLFDCDFGDLTPLD
notes: also called E2F^TD; source: synthetic peptide, bought: GenScript
With B1, the Kd with Rb^P M704V is 129 nM; with Rb^P H555Y, 366 nM; with Rb^P E554K it was 3270 nM; with Rb^P I703V, 99 nM; with Rb^P H673Y, 66 nM.

B2: TMR-E7^LxCxE, LxCxE peptide of the E7 oncoprotein from HPV (peptide)
peptide: DLYCYEQLN
modifications: also: TMR label, position not given here
notes: source: synthetic peptide, bought: GenScript
On to B2, for which the Kd with Rb^P M704V is 51 nM; with Rb^P H555Y, 32 nM; in the test with Rb^P E554K, 48 nM; in the test with Rb^P I703V, 53 nM; with Rb^P H673Y, 29 nM.

The values above are taken from article PMC11931385, “Structural and functional analysis of cancer-associated missense variants in the retinoblastoma protein pocket domain” (The Journal of Biological Chemistry, 2025).
